Experimental data: patent US20170173105A1, “AUTOASSEMBLING PEPTIDES FOR THE TREATMENT OF PULMONARY LEAKAGE” (3-D MATRIX, LTD., priority 2014, published 2017)

Key:
[1] = Rheological properties of peptide solutions and hydrogels after salt ionic strength adjustment; format: physicochemical
Description: Based on the visual observation of the effect of salt ionic strength on the properties of the peptide solutions, the effect on the rheological properties of the peptide solutions after adjusting their ionic strength level with NaCl to 0.7 M (PuraMatrix®), 0.2 M (KLD12) or 0.02 M (IEIK13), which is closely below the critical ionic strength at which each peptide becomes cloudy, was evaluated. If the ionic strength levels with NaCl of peptide solutions are higher than 0.9 M (PuraMatrix®), 0.3 M (KLD12) or 0.03 M (IEIK13), the peptide solution begin phase separation becoming cloudy and weak. The rheological property of PuraMatrix®, KLD12 and IEIK13 solutions was higher after adjusting their ionic strength level with NaCl to 0.7 M (PuraMatrix®), 0.2 M (KLD12) or 0.02 M (IEIK13), The results are shown in FIG. 10 for KLD12 1%, FIG. 11 for IEIK13 1%, and FIG. 12 for PuraMatrix® 1%, respectively. Frequency sweep tests were performed from 1 rad/s to 10 rad/s at 1 Pa.
Based on the results of the effect on the rheological properties of the peptide solutions after adjusting their ionic strength level with NaCl to 0.7 M (PuraMatrix®), 0.2 M (KLD12) or 0.02 M (IEIK13), the effect on the rheological properties of the peptide solution at various salt ionic strengths was evaluated. […] The results are shown in FIG. 13 for PuraMatrix® 1% solution and in FIG. 14 for IEIK13 1% solution. Frequency sweep tests were performed from 1 rad/sec to 10 rad/sec at 1 Pa and the storage modulus at 1 rad/sec was selected for data.
Based on the results of the effect on the rheological properties of the peptide solutions after adjusting their ionic strength levels, the effect on the rheological properties of the peptide hydrogels after DMEM treatment for 10 min was evaluated. […] The results are shown in FIG. 15 for PuraMatrix® 1% hydrogels and in FIG. 16 for IEIK13 1% hydrogels, both after DMEM treatment for 10 min Frequency sweep tests were performed from 1 rad/sec to 10 rad/sec at 1 Pa and the storage modulus at 1 rad/sec was selected for data.
Based on the results of the effect on the rheological properties of the peptide solutions and hydrogels after adjusting their ionic strength levels with NaCl, the effect of various salts (KCl, MgCl2, and CaCl2) was also evaluated. The rheological property of PuraMatrix® solutions increases with ionic strength adjustment at 0.15 M of all the salts. Increases of the rheological property of PuraMatrix® solutions with various salts were not predominantly different. However, increases of the rheological property of PuraMatrix® solutions may vary depending on the salting out constant, K of each salt. Constant K is a constant in Cohen's equation: log S=B−KI, where S is solubility, B is idealized solubility, K is salting out constant, and I is ionic strength. With a higher value of constant K and ionic strength of salts, solubility of the peptide may decrease resulting in strong peptide self-assembly with increased hydrophobic effect and higher rheological properties of the peptide solution. The constant K of NaCl may be higher than the other salts. […] The results are shown in FIG. 17 for PuraMatrix® 1% solution before DMEM treatment, and in FIG. 18 for PuraMatrix® 1% hydrogels after DMEM treatment for 10 min.
In accordance with one or more embodiments, IEIK13, KLD12, and PuraMatrix® may be dissolved both in salt buffer such as NaCl and at an elevated pH level adjusted with alkali salt buffer such as NaOH to keep their salt ionic strength under their critical salt points as well as their pH level to about 2.5˜4.0, so that they may have stiffer properties. With respect to PuraMatrix®, […] and IEIK13, the peptide solutions are still clear with 0.9% NaCl (ionic strength: 0.15 M) at pH 3.4 adjusted with NaOH. […] The effect of salt ionic strength and pH adjustment on the rheological properties of PuraMatrix® 2.5% solution are shown in FIG. 20. […]

[2] = Appearance of 1.5% peptide solutions with various salts at room temperature; format: physicochemical; details: for Appearance: IEIK13 solution, room temperature
Description: The effect of salt ionic strength level on the properties of peptide solutions was evaluated to identify optimized salt ionic strength levels for the peptides as described herein. Increasing the salt ionic strength level of PuraMatrix® and other peptides may generally improve its function and mechanical strength for various clinical applications. To adjust the salt ionic strength of the peptide solutions by way of example, various salt buffer solutions including NaCl, KCl, MgCl2, CaCl2 and DPBS (10×) were added to 2 mL of 1.5% peptide solutions.

Ile-Glu-Ile-Lys-Ile-Glu-Ile-Lys-Ile-Glu-Ile-Lys-Ile [IEIK13]
appearance of peptide solutions with salt and pH adjustment ([1]; 0.9% NaCl (ionic strength: 0.15 M) at pH 3.4 adjusted with NaOH): still clear
rheological property of hydrogels after DMEM treatment at various ionic strengths ([1]; 1% hydrogels, DMEM treatment for 10 min): did not significantly change with ionic strength adjustment up to 0.025 M, while decreases above 0.03 M
rheological property of 1% solutions at various salt ionic strengths ([1]; 1% solution, storage modulus at 1 rad/sec): increases with ionic strength adjustment up to 0.03 M, while decreases above 0.03 M
ionic strength level with NaCl at which the peptide solution begins phase separation becoming cloudy and weak ([1]; NaCl): > 0.03 M
rheological property of solutions after ionic strength adjustment with NaCl ([1]; NaCl to 0.7 M (PuraMatrix®), 0.2 M (KLD12) or 0.02 M (IEIK13), 1% solutions): higher
Appearance ([2]; CaCl2 0 M, ionic strength 0 M, conc. 1.5%): Clear, thick gel
Appearance ([2]; CaCl2 0.005 M, ionic strength 0.015 M, conc. 1.46%): Clear, thick, stiffer gel
Appearance ([2]; CaCl2 0.0067 M, ionic strength 0.02 M, conc. 1.45%): Clear, thick, stiffer gel
Appearance ([2]; CaCl2 0.0083 M, ionic strength 0.025 M, conc. 1.44%): Clear, thick, stiffer gel
Appearance ([2]; CaCl2 0.01 M, ionic strength 0.03 M, conc. 1.43%): Clear, thick, stiffer gel
Appearance ([2]; CaCl2 0.0117 M, ionic strength 0.035 M, conc. 1.41%): Clear, thick, stiffer gel
Appearance ([2]; CaCl2 0.0133 M, ionic strength 0.04 M, conc. 1.40%): Slightly cloudy, thick, stiffer gel
Appearance ([2]; CaCl2 0.015 M, ionic strength 0.045 M, conc. 1.39%): Slightly cloudy, thick, stiffer gel
Appearance ([2]; CaCl2 0.0167 M, ionic strength 0.05 M, conc. 1.37%): Slightly cloudy, brittle gel
Appearance ([2]; CaCl2 0.0183 M, ionic strength 0.055 M, conc. 1.36%): Cloudy, phase-separated
Appearance ([2]; KCl 0 M, ionic strength 0 M, conc. 1.5%): Clear, thick gel
Appearance ([2]; KCl 0.005 M, ionic strength 0.005 M, conc. 1.46%): Clear, thick, stiffer gel
Appearance ([2]; KCl 0.01 M, ionic strength 0.01 M, conc. 1.43%): Clear, thick, stiffer gel
Appearance ([2]; KCl 0.015 M, ionic strength 0.015 M, conc. 1.39%): Clear, thick, stiffer gel
Appearance ([2]; KCl 0.02 M, ionic strength 0.02 M, conc. 1.35%): Clear, thick, stiffer gel
Appearance ([2]; KCl 0.025 M, ionic strength 0.025 M, conc. 1.31%): Clear, thick, stiffer gel
Appearance ([2]; KCl 0.03 M, ionic strength 0.03 M, conc. 1.27%): Clear, thick, stiffer gel
Appearance ([2]; KCl 0.035 M, ionic strength 0.035 M, conc. 1.24%): Slightly cloudy, brittle gel
Appearance ([2]; KCl 0.04 M, ionic strength 0.04 M, conc. 1.2%): Slightly cloudy, brittle
Appearance ([2]; KCl 0.045 M, ionic strength 0.045 M, conc. 1.16%): Cloudy, phase-separated
Appearance ([2]; MgCl2 0 M, ionic strength 0 M, conc. 1.5%): Clear, thick gel
Appearance ([2]; MgCl2 0.005 M, ionic strength 0.015 M, conc. 1.46%): Clear, thick, stiffer gel
Appearance ([2]; MgCl2 0.0067 M, ionic strength 0.02 M, conc. 1.45%): Clear, thick, stiffer gel
Appearance ([2]; MgCl2 0.0083 M, ionic strength 0.025 M, conc. 1.44%): Clear, thick, stiffer gel
Appearance ([2]; MgCl2 0.01 M, ionic strength 0.03 M, conc. 1.43%): Clear, thick, stiffer gel
Appearance ([2]; MgCl2 0.0117 M, ionic strength 0.035 M, conc. 1.41%): Clear, thick, stiffer gel
Appearance ([2]; MgCl2 0.0133 M, ionic strength 0.04 M, conc. 1.40%): Slightly cloudy, thick, stiffer gel
Appearance ([2]; MgCl2 0.015 M, ionic strength 0.045 M, conc. 1.39%): Slightly cloudy, stiffer gel
Appearance ([2]; MgCl2 0.0167 M, ionic strength 0.05 M, conc. 1.37%): Slightly cloudy, brittle gel
Appearance ([2]; MgCl2 0.0183 M, ionic strength 0.055 M, conc. 1.36%): Cloudy, phase-separated
Appearance ([2]; NaCl 0 M, ionic strength 0 M, conc. 1.5%): Clear, thick gel
Appearance ([2]; NaCl 0.005 M, ionic strength 0.005 M, conc. 1.46%): Clear, thick, stiffer gel
Appearance ([2]; NaCl 0.01 M, ionic strength 0.01 M, conc. 1.43%): Clear, thick, stiffer gel
Appearance ([2]; NaCl 0.015 M, ionic strength 0.015 M, conc. 1.39%): Clear, thick, stiffer gel
Appearance ([2]; NaCl 0.02 M, ionic strength 0.02 M, conc. 1.35%): Clear, thick, stiffer gel
Appearance ([2]; NaCl 0.025 M, ionic strength 0.025 M, conc. 1.31%): Clear, thick, stiffer gel
Appearance ([2]; NaCl 0.03 M, ionic strength 0.03 M, conc. 1.27%): Slightly cloudy, thick, stiffer gel
Appearance ([2]; NaCl 0.035 M, ionic strength 0.035 M, conc. 1.24%): Slightly cloudy, brittle gel
Appearance ([2]; NaCl 0.04 M, ionic strength 0.04 M, conc. 1.2%): Cloudy, phase-separated
apparent stiffness on salt ionic strength increase ([2]; up to the ionic strength at which solutions stay clear): increased
